These results are taken from the DeepSol protein solubility set.

This data set can be described thus: soluble on expression in E. coli; label from the status in PepcDB or PDB records.
In the case of “MTYPYRTTMALNTYQYRETTMIDPKKIEQIARQVHESMPKGIREFGEDVEKKIRQTLQAQLTRLDLVSREEFDVQTQVLLRTREKLALLEQRISELENRSTEIKKQPDPETLPPTLLEHHHHHH”, the “soluble on expression in E. coli” value was “not soluble”.

Consider “MEILTLEQQKSFIKAIDGHKLEVLFLLALGTGLRLGELLGLKWFDIDFKKSNLTVKRTLQRTYFIDKTGNRELKVLEQGPKTSNSYRTVPIPKDVLNKLKEHKVNQNTDILKAGELYINNNYVFCNELGIPIDDKRPLRNLKSILNSLNIEPIKFHGLRKTYATRLFENDVPPKTVQVLMGHYDISITLNIYTQVMEDKKVEAVEKLDKIFSLEHHHHHH”, for which the “soluble on expression in E. coli” value is reported as “soluble”.

For the sequence “MASLKVPSNVPLPEDDAEQLHKAFSGWGTNEKLIISILAHRNAAQRSLIRSVYAATYNEDLLKALDKELSSDFERAVMLWTLDPPERDAYLAKESTKMFTKNNWVLVEIACTRPALELIKVKQAYQARYKKSIEEDVAQHTSGDLRKLLLPLVSTFRYEGDDVNMMLARSEAKILHEKVSEKSYSDDDFIRILTTRSKAQLGATLNHYNNEYGNAINKNLKEESDDNDYMKLLRAVITCLTYPEKHFEKVLRLSINKMGTDEWGLTRVVTTRTEVDMERIKEEYQRRNSIPLDRAIAKDTSGDYEDMLVALLGHGDA”, the “soluble on expression in E. coli” value is “soluble”.

“MGSDKIHHHHHHMQLTVWTYEGPPHVGAMRVATGMEGLHYVLHAPQGDTYADLLFTMIERRDRRPPVTYTTFAARDLGKDTAELFKTAAQNAYDRFKPQAMIVGASCTGSLIQDDPGGLAKALALPIPVVAIDLPAYQRKENWGAAETFYQLVRAIAGPKAPPPGSKRPERPAGKRPSCNLLGPTALGFRHRDDIIELTTLLGKLGIDVNVTAPMGATPADLARLGEADFNVVMYPETASQAASWLHRMFHQPFTKIVPIGVSATREFIEEVAKLADVDPTAVLKSYSSRLPWYSHSVDSTYLTGKRVFIFGDATHVVAAARMASDEMGFKVVGLGTYSREFGREIREAAKLYDVEPLITDDYLEVEAKVAELHPELVLGTQMERHIAKRLGVPCAVISAPVHVQDFPARYAPQMGFEGANVIFDTWVHPLMMGLEEHLLTMFRDDFEFKDGATPSHLGVGHAPAPAPAVADSAAVEVLDATTATTTETTTAVWAADAEKELRKIPFFVRGKARRNTERFANENGVATITVETLYDAKAHFSR”: the “soluble on expression in E. coli” value is on record as “not soluble”.

Consider “MRIGIVGAGLGGLLAGALLSKNHEVVVFEKLPFLGGRFTNLKYEGFQLTTGALHMIPHGNDGYLAQALRKAGANVKIINSKPDGTFLINGKEYLYKELFSLLGFKEKAKAFKLATKLKLGKVDKNISFGEFLEEIDLALKVGNAFTGWALSLTAYETPMSEIIEIAKNYHKFGGPGIPIGGCKAVTDELSRIIKKNNGKIIKEYEVKRIEIDEKAYIDDYEFDVVISNISPIETQKICNIKFLKSKPKPSKGIKISIATKEGIIKHGGVLFTPECERINGLNQVTNVDKSLAPEGWHLVMTHQTQLTNNVKKEIDLGLEDIENLFKGKDYKILHIQSYRDDWPVNHASNGTDIDNIVNDRFYLVGDGAKGRGGIEVEGIAMGVLKVVNYINSLLEHHHHHH”, for which the “soluble on expression in E. coli” value is given as “soluble”.

Regarding “QVQLQQSGSELMKPGASVQISCKATGYTFSDYWIEWVKQRPGHGLEWIGDILCGTGRTRYNEKLKAMATFTADTSSNTAFMQLSSLTSEDSAVYYCARSASYGDYADYWGHGTTLTVSSAKTTPPSVYPLAPGCGDTTGSSVTLGCLVKGYFPESVTVTWNSGSLSSSVHTFPALLQSGLYTMSSSVTVPSSTWPSQTVTCSVAHPASSTTVDKKLEPS”, the “soluble on expression in E. coli” value is listed as “soluble”.

As for “MSLGPADGGGDLVGVAGRESWVQTVPYGMVVCPSGTFHMGQADEDVPATQINLNKQVTIGGFYMDETEITNNEYRQFMNVMLEDSVATLGEEYIMTELYPDTTVWVRDFSHHMGDPMMEYYYAHPAFDEYPVVGVDWWAAKYFCEWRTQHMNNWRAENGLWQMPRFRLPSEAEWEYAARGGRDMAKYPWGNPYIRNSKGCMLANFKPGRGNYYDDGFMYTSPVASYFSNDFGLYDMAGNISEWCEDAYYDAAVPIVWDLNPTYYNDDEVRKIIRGGSWKDIAYYLETGTRTFEYQDTSKSYIGFRTVMTYLGRSSGYEGHHHHHH”, the “soluble on expression in E. coli” value is on record as “not soluble”.

As for “MSLKYFEFTFHTSPCTETVNDVLAAVLGEAGFESFVESEGGLTAYIQQALCDENTIKNAITEFPLPDTEITYTYVEAEDKDWNEEWEKNFFQPIVIDNRCVIHSTFHKDVPQATYDIVINPQMAFGTGHHETTSLIIGELLDNELKDKSLLDMGCGTSILAILARMRGARPCIAIDIDEWCVRNSIENIELNHVDDIAVSQGDASSLVGKGPFDIIIANINRNILLNDMKQYVACMHPGSELYMSGFYVDDIPFIRREAEKNGLTFVHHKEKNRWAAVKFTYEGHHHHHH”, the “soluble on expression in E. coli” value is given as “soluble”.

On to “MSLSVAVSPLAPKSYPDMPALRGVRMATAAAGIKYKNRTDVLLMVFDKPASVAGVFTKSKCPSAPVDFCRANLGSGAARAVVVNSGNANAFTGVKGKAATELTAKSAAAAVGCSEGEIFLASTGVIGEPLDASKFAGVLGDMNVRAEADFWQEAAKAIMTTDTYPKVSTRTAEIGGVIVTINGISKGAGMIAPDMATMLSFVVTDADIEPAALQSLLSAGVGPTFNSVTVDSDTSTSDTLMLFATGAAAEDGQVKVTSADDERLSSFRAALNDLLKDLALQVVRDGEGARKMVEVTVTGAENDAAAKKIALSIANSPLVKTAVAGEDANWGRVVMAVGKSGEMADRDRLAIWFGGVRVAVNGERDPDYSEAETTAVMRLEDITVKVDIGLGQGTATVWTCDLTKEYVAINGDYRSEGHHHHHH”, for which the “soluble on expression in E. coli” value is on record as “not soluble”.

As to “MAHHHHHHMDLVQLQRILSTHDERVVKVFVNHIPEVGLRKIDDCVLEYMLKMLEGQTSSESYLPEEIIEETMKLYFREFDVFSDSEEKLNKSTAAICQQMLKEGITKKPSEESSRLASAVNIGRQYEESLKRATMIKSVGKVTTANTNEDWTWETKRSAAKDMRKKRREDEKKAILAEEYEAFLRKRGISNTTAVTKIHHKGEGTNYSTDIRCEAIHIQLGKQVLLDDTDLVLLTGHKYGLIGRNGAGKTTLLRALAERELEGVSPFMQILHVEQEIVAGAETPLEVLLATDVERAQLLHEEQELLKQNDTEANTRLNEVYARLDAIDAHSAEARAATILHGLSFTQDMMTSPTKQLSGGWRMRVALARALFVEPDVLLLDEPTNHLDLFAVLWLEQFLRDWQKTLIVVSHSRTFLNNVCSEIIHLIGHHLHYYNGNYDQFEITRVEQERQQKKQHAAQEKQRAHIQAFIDKFRYNANRAKMAQSRIKALERMEMVADVVTDPQFAFTFPDAEPVSGSFIEMVDCEFGYKPGVSLFKDVNMGIDESSRIVLVGANGVGKSTFMNVCTGALEPRSGTVVRNKKIRVAHFAQHNMESLTPQLSSLEFLRSKFPHMEDQQLRAHLGSMGLSGERALQPIYTLSGGQKSRLVLAWITFQKPHLLLLDEPTNHLDIDTVNALIEALLAYNGGLLVISHDEYFITSLCDDIFVCEDNTVKKFDGDFAEYRKHVVKMMK”, the “soluble on expression in E. coli” value is listed as “soluble”.

With “KKAITCGEKEKQDLIKSLAMLKDGFRTDRGSHSDLWSSSSSLESSSFPLPKQYLDVSSQTDISGSFGINSNNQLAEKVRLRLRYEEAKRRIANLKIQLAKLDSEAWPGVLDSERDRLILINEKEELLKEMRFISPRKWTQGEVEQLEMARKRLEKDLQAARDTQSKALTERLKLNSKRNQLVRELEEATRQVATLHSQLKSLSSSMQSLSSGSSPGSLTSSRGSLVASSLDSSTSASFTDLYYDPFEQLDSELQSKVEFLLLEGATGFRPSGCITTIHEDEVAKTQKAEGGGRLQALRSLSGTPKSMTSLSPRSSLSSPSPPCSPLMADPLLAGDAFLNSLEFEDPELSATLCELSLGNSAQERYRLEEPGTEGKQLGQAVNTAQGCGLKVACVSAAVSDESVAGDSGVYEASVQRLGASEAAAFDSDESEAVGATRIQIALKYDEKNKQFAILIIQLSNLSALLQQQDQKVNIRVAVLPCSESTTCLFRTRPLDASDTLVFNEVFWVSMSYPALHQKTLRVDVCTTDRSHLEECLGGAQISLAEVCRSGERSTRWYNLLSYKYLKKQSRELKPVGVMAPASGPASTDAVSALLEQTAVELEKRQEGRSSTQTLEDSWRYEETSENEAVAEEEEEEVEEEEGEEDVFTEKASPDMDGYPALKVDKETNTETPAPSPTVVRPKDRRVGTPSQGPFLRGSTIIRSKTFSPGPQSQYVCRLNRSDSDSSTLSKKPPFVRNSLERRSVRMKRPSSVKSLRSERLIRTSLDLELDLQATRTWHSQLTQEISVLKELKEQLEQAKSHGEKELPQWLREDERFRLLLRMLEKRMDRAEHKGELQTDKMMRAAAKDVHRLRGQSCKEPPEVQSFREKMAFFTRPRMNIPALSADDV”, the “soluble on expression in E. coli” value is on record as “soluble”.

As to “GMDTAKTKPFDEMFLQDEVIRPIYAEYAAWLQDVPHQQLESKRQEAELLFRRVGITFNVYGEDAGAERLIPFDVVPRILSASEWARLSDGAIQRVKALNMFLHDVYHDQEIIKAGIVPSSILANAQYRPEMFGVDVPGGVYAHIAGVDLVRTGENDFYVLEDNLRTPSGVSYMLENRKMMMRLFPELFRRYPVAPVEHYPQVLLNNLRAVAQAGVHEPTVVLLTPGAYNSAYFEHAFIAQQMGIELVEGQDLFVRNNAVYMRTTEGPKRVDVIYRRIDDDFIDPLSFRPDSMLGVPGLLSVYRNGGVTLANAVGTGVADDKDTYIYVPEMIRFYLGEEPILSNVPTYQLSKADDLKYVLDNLAELVVKEVQGSGGYGMLVGPAASKQELEDFRQRILANPANYIAQPTLALSTCPTLVETGIAPRHVDLRPFVLSGKTVSLVPGALCRVALREGSLVVNSSQGGGTKDTWILKD”, the “soluble on expression in E. coli” value is listed as “soluble”.

Take “MAQVRQEIAREQEKAARLARNLAKYLSPQVWEMIFSGKKSVRLETQRKKLTVFFSDIRGFTELSEELEAEALTDLLNNYLNEMSKIALKYGGTIDKFVGDCVMVFFGDPSTQGAKKDAVAAVSMGIAMRKHMKVLRQQWRAQGITKPLEIRMGINTGYCTVGNFGADTRMDYTIIGREVNLASRLESASEAGEILISHETYSLIKDVIMCRDKGQIAVKGFSRPVQIYQVVDSRRDLGAAPSYVEHELPGFSMYLDTNNIQNYDKERVIQALQQAAER”: the “soluble on expression in E. coli” value is “not soluble”.

Regarding “MMINTQEDKLVSAHDAEEFHRFFVGHDSDLQQEVTTLLTREAHLLDIQAYKAWLEHFVAPEIKYQVISRELRSTSERRYQLNDAVNLYNENYQQLKVRVEHQMDPQNWANNPKIRFTRFVTNVTAAKDKSAPEILHVRSNLILHRARRENQVDVFYATREDKWKRIEGGGIKLVERFVDYPERIPQTHNLLVFL”, the “soluble on expression in E. coli” value was “soluble”.

Turning to “MAIKSPPTLIPLSHLSGEELQAHLRFNRVTDEKGRYLPFDELQYRIKKGENVDVAWTLTRLARNAAIQRINYCNEAGEQAGFNITPVIAEACELVDKRATALALKDQTERLRGAGAELSQLRLEEPITSSQLEGANTTTLVARKMLETGRSPRTEDEHMIAGNARLMAEIPHLLAEPLTPALIRQLHAIGMGGINDAKYRPGEFRETDDVVIADYDGNIVHQPPAAALLPERLEKVCQWLNSHEGYIHPLVRACILHFMLAHEHPFRDGNGRTSRALFYWYMLKSGYDVFKYISISRLLHAAPVKYAASYQYTESDGMDLTYFLEYQAGVIKRALQNWQQHIDEITQRSAKLDSVLFSSGVLKRLNPRQVTLLNVMLANPGKEYTVAEISASLGVSDNTVRADLRTIVKEGFAQEKKINDQQAVYFAHYPL”, the “soluble on expression in E. coli” value is recorded as “not soluble”.

Turning to “MGSDKIHHHHHHVGYPRDFQLNYATLFSVSPLVIDWGSYSQIEAEMRLFQAAAPGKYAYYHLLSGLDLPLANQDEIHAFFAAHPGKEFITYSSQKNGAQLLARVQKYHFTHNFRQPNKAMRLFRKIEKAEQRVFPVRKKFAGTLAFGSNWVSLENDLVQVLLREDDRIRTMFARGFLVDELLVPTMLNIYPEFKDRIYYDRPVHDRPEEFQGSLRYINWWDGSPYVWREKDYETLLAARRQGHLFSRKFDAEVDKAIIDKIAGQLLEIK”, the “soluble on expression in E. coli” value was “not soluble”.
